Holding throughout (test): SPR; BIAcore 3000; BMP2 (350 RU) or BMP12 (1000 RU) amine-coupled on CM5 chips; soluble RGM injected at 0.1-100 nM, 30 uL/min, 500 s, 25°C; HBS-EP pH 7.4 (0.15 M NaCl); global analysis with BIAevaluation 3.2; double referencing
In general terms: SPR reads the build-up and loss of mass on a sensor chip optically.

Test [1] addresses Human BMP2 (bone morphogenetic protein 2) (human) (UniProt P12643).
Test [2] has as its target Human BMP12 (bone morphogenetic protein 12) (human) (UniProt Q7Z4P5).
The target of test [3] is T1, Human BMP12 (bone morphogenetic protein 12) (human, UniProt Q7Z4P5 322-450).
T1 construct: bone morphogenetic protein 12 (GDF7), human; the dimer peak from size exclusion was used; also called recombinant human BMP12; source: E. coli, purified (SP-Sepharose cation exchange, size exclusion; dimer peak)
T1 sequence (looked up): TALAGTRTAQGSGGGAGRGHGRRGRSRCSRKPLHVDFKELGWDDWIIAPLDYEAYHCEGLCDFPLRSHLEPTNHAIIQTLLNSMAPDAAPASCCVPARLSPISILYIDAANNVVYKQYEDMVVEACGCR
The note with it: both partners purified.

The target of test [4] is T2, Human BMP2 (bone morphogenetic protein 2) (human, UniProt P12643 283-396).
T2 construct: bone morphogenetic protein 2, human; purified recombinant protein; also called recombinant human BMP2; source: produced and purified as previously described [37]
T2 sequence (P12643 283-396): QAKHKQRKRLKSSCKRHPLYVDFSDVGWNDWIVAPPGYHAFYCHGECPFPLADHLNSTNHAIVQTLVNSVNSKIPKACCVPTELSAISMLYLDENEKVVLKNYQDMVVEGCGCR
The note with it: both partners purified.

This passage reports Kd, koff and kon results from article PMC1933414, “Role of RGM coreceptors in bone morphogenetic protein signaling” (Journal of Molecular Signaling, 2007).

Sequence of Human BMP2 (bone morphogenetic protein 2) (human) (P12643 283-396): as above

Turning to “RGMb-Fc (ectodomain of RGMb fused to the Fc portion of human IgG) (from UniProt Q6NW40 46-413) (Fc fusion)”, in test [1], the dissociation constant Kd – broadly, the concentration at which binding is half-saturated – is 5.43 nM; the koff (usually a measure of how fast the partners let go of each other) was found to be 0.000256 s⁻¹; the on-rate (kon) (usually a measure of how fast the partners come together) amounted to 47200 M⁻¹ s⁻¹. In test [2], this molecule had a Kd of 2.06 nM, a koff of 0.000118 s⁻¹ and a kon of 56900 M⁻¹ s⁻¹.
In test [1], “RGMc-Fc (ectodomain of RGMc fused to the Fc portion of human IgG) (from UniProt Q6ZVN8 36-400) (Fc fusion)” yielded a dissociation constant Kd of 4.22 nM, an off-rate constant (koff) of 0.000363 s⁻¹ and a kon of 86100 M⁻¹ s⁻¹. Moreover, in test [2], the Kd was 1.22 nM, the off-rate (koff) is 9.22e-05 s⁻¹ and the kon came out at 75600 M⁻¹ s⁻¹.

B1: RGMa-Fc (ectodomain of RGMa fused to the Fc portion of human IgG) (Fc fusion)
chain: CKILKCNSEFWSATSGSHAPASDDTPEFCAALRSYALCTRRTARTCRGDLAYHSAVHGIEDLMSQHNCSKDGPTSQPRLRTLPPAGDSQERSDSPEICHYEKSFHKHSATPNYTHCGLFGDPHLRTFTDRFQTCKVQGAWPLIDNNYLNVQVTNTPVLPGSAATATSKLTIIFKNFQECVDQKVYQAEMDELPAAFVDGSKNGGDKHGANSLKITEKVSGQHVEIQAKYIGTTIVVRQVGRYLTFAVRMPEEVVNAVEDWDSQGLYLCLRGCPLNQQIDFQAFHTNAEGTGARRLAAASPAPTAPETFPYETAVAKCKEKLPVEDLYYQACVFDLLTTGDVNFTLAAYYALEDVKMLHSNKDKLHLYERTRDLPGRA
On to B1, for which, in test [3], binding was characterised by a dissociation constant (Kd) of 1.41 nM, the dissociation rate constant (koff) is 0.000179 s⁻¹ and the on-rate constant (kon) was 127000 M⁻¹ s⁻¹. Besides, in test [4], the dissociation constant (Kd) was determined as 2.46 nM, the koff worked out at 0.000364 s⁻¹ and the kon stood at 148000 M⁻¹ s⁻¹.
